The record followed here is paper doi:10.1101/2020.09.29.318733.

One may read the stoichiometry N as the number of molecules, sites or subunits per partner or assembly.

One test concerns the target Kohinoor. Put plainly: SEC. (Size exclusion chromatography separates by hydrodynamic size, large species first.)
For a further test, the target named is Padron. Put plainly: SEC.

For Kohinoor, the stoichiometry N in the test with Kohinoor was found to be 2.

For Padron, the stoichiometry N in the test with Padron worked out at 4.
